Assay results from patent US9937235B2, “Lipidated peptides as anti-obesity agents” (USTAV ORGANICKE CHEMIE A BIOCHEMIE AKADEMIE VED CR, V.V.I, priority 2012, dated 2018).
Where a SMILES comes first, the peptide text is derived from it. Where no end group is shown, it is not given here. [ ]: non-standard residue; d: D form. The star is where a group is joined. Phe(F5) = N[C@@H](Cc1c(F)c(F)c(F)c(F)c1F)C(=O)O; Stearoyl = CCCCCCCCCCCCCCCCCC(=O)*; Palmitoyl = CCCCCCCCCCCCCCCC(=O)*; Myristoyl = CCCCCCCCCCCCCC(=O)*; PheCl2 = dichlorophenylalanine; Lauroyl = CCCCCCCCCCCC(=O)*; PheNO2 = nitrophenylalanine; Decanoyl = CCCCCCCCCC(=O)*; NMeA = CN[C@@H](C)C(=O)O; Nle = CCCC[C@H](N)C(=O)O; Octanoyl = CCCCCCCC(=O)*; Sar = CNCC(=O)O

T1: rat PrRP receptor (GPR10) in RC-4B/C cells (Rattus norvegicus, UniProt Q64121)
T1 construct: host or cells: RC-4B/C rat pituitary cell line
T1 sequence (Q64121 1-370): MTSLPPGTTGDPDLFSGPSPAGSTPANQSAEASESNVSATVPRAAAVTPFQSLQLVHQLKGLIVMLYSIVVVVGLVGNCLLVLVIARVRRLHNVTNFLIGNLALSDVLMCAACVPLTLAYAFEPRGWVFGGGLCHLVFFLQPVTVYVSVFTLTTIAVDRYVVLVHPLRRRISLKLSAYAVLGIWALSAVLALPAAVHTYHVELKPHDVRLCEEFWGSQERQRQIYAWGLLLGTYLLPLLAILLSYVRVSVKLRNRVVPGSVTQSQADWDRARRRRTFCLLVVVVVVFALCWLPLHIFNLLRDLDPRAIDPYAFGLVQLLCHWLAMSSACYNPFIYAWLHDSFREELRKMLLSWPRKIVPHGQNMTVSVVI

T2: rat PrRP receptor in RC-4B/C cells (rat, UniProt Q64121 1-370)
T2 construct: whole, on cells; also called the rat receptor; GPR10
T2 sequence (looked up): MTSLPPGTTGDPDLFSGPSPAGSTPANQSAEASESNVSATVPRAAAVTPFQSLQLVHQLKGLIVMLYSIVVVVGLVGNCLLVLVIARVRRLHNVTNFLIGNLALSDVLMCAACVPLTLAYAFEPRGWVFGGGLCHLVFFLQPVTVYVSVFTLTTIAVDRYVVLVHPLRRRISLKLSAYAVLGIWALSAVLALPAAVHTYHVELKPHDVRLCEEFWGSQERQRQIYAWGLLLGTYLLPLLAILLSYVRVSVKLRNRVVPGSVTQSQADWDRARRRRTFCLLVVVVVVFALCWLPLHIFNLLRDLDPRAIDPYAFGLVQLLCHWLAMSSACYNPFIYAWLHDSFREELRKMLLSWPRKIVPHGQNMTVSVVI

T3: human PrRP receptor, GPR10, transfected in CHO cells (human, UniProt P49683 1-370)
T3 construct: whole, on cells; also called human GPR10 receptor; the human receptor GPR10 in CHO cells
T3 sequence (looked up): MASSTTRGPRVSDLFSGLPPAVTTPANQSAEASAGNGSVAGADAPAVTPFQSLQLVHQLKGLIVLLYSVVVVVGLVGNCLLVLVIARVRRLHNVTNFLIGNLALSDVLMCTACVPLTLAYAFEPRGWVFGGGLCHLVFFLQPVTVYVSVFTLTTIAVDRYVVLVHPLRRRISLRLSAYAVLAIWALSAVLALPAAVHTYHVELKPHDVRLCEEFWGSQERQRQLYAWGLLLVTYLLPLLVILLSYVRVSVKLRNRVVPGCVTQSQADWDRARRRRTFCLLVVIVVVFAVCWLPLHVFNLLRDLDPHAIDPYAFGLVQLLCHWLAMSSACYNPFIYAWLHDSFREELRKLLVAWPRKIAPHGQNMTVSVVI


Assays:
[1] = molecular target: T1, rat PrRP receptor (GPR10) in RC-4B/C cells; test: Competitive binding to rat pituitary RC-4B/C cells; conditions: rat RC-4B/C cells, Table 5; read-out: C-4B/C cells ^25I-rat PrRP31 Ki
Experimental: Competitive binding experiments were performed according to Motulsky and Neubig (Motulsky, A., et al., “Analyzing radioligand binding data,” Curr Protoc Neurosci, Chapter 7, Unit 7.5, 2002). The rat pituitary cell line RC-4B/C (ATCC, Manassas, USA) was grown on 24-well plates which had their bottom coated with polyethyleneimine. The cells were grown to the optimal density of 300-450 thousand per well. […] Plates were incubated for 60 minutes at room temperature. After incubation, the cells were solubilized in 0.1 mol/l solution of NaOH and the radioactivity bound to the cells was counted using a γ-counter. The experiments were performed in duplicate and repeated at least three times. For evaluation of competitive binding experiments, the program Graph Pad Prism Software (San Diego, Calif., USA) was used. A method of nonlinear regression assuming one-site binding was used.

[2] = molecular target: T2, rat PrRP receptor in RC-4B/C cells; test: competition with 125I-rat PrRP31 on RC-4B/C cells
[3] = molecular target: T3, human PrRP receptor, GPR10, transfected …; test: competition with 125I-human PrRP31 on CHO cells with transfected human GPR10
Experimental: CHO cells with transfected human PrRP receptor, GPR10 (Perkin Elmer, USA) were grown on 24-well plates coated with polyethyleneimine. The cells were grown to the optimal density of 40-80 thousand cells per well.
Plates were incubated for 60 minutes at room temperature. After incubation, the cells were solubilized in 0.1 mol/l solution of NaOH and the radioactivity bound to the cells was counted using a γ-counter. The experiments were performed in duplicate and repeated at least three times.

Ki [1] | Ki [2] | Ki [3] | Molecule
0.46 ± 0.05 nM |  |  | CCCCCCCCCCCCCC(=O)N[C@H](C(=O)N1CCC[C@H]1C(=O)N[C@@H](CC(=O)O)C(=O)N[C@H](C(=O)N[C@@H](CC(N)=O)C(=O)N1CCC[C@H]1C(=O)N[C@@H](C)C(=O)N[C@@H](Cc1c[nH]c2ccccc12)C(=O)N[C@@H](Cc1ccc(O)cc1)C(=O)N(C)[C@@H](C)C(=O)N[C@@H](CO)C(=O)N[C@@H](CCCNC(=N)N)C(=O)NCC(=O)N[C@H](C(=O)N[C@@H](CCCNC(=N)N)C(=O)N1CCC[C@H]1C(=O)N[C@H](C(=O)NCC(=O)N[C@@H](CCCNC(=N)N)C(=O)N[C@@H](Cc1ccccc1)C(N)=O)C(C)C)[C@@H](C)CC)[C@@H](C)CC)[C@@H](C)O [Analog 41] (Myristoyl-TPDINPAWY[NMeA]SRGIRPVGRF-NH2)
 | 9.69 nM | 8.59 nM | SRAHQHS[Nle]ETRTPDINPAWYTGRGIRPVGR[Phe(F5)]-NH2 [analog no. 32]
 | 0.39 nM | 1.19 nM | Lauroyl-SRAHQHS[Nle]ETRTPDINPAWYTGRGIRPVGRF-NH2 [analog no. 17]
 | 3.84 nM | 2.27 nM | SRAHQHS[Nle]ETRTPDINPAWYTGRGIRPVGR[PheCl2]-NH2 [analog no. 24]
 | 7.94 nM | 4.51 nM | TPDINPAWYTGR[Sar]IRPVGRF-NH2 (N-terminus assumed; SMILES CC[C@H](C)[C@H](NC(=O)CN(C)C(=O)[C@H](CCCNC(=N)N)NC(=O)CNC(=O)[C@@H](NC(=O)[C@H](Cc1ccc(O)cc1)NC(=O)[C@H](Cc1c[nH]c2ccccc12)NC(=O)[C@H](C)NC(=O)[C@@H]1CCCN1C(=O)[C@H](CC(N)=O)NC(=O)[C@@H](NC(=O)[C@H](CC(=O)O)NC(=O)[C@@H]1CCCN1C(=O)[C@@H](N)[C@@H](C)O)[C@@H](C)CC)[C@@H](C)O)C(=O)N[C@@H](CCCNC(=N)N)C(=O)N1CCC[C@H]1C(=O)N[C@H](C(=O)NCC(=O)N[C@@H](CCCNC(=N)N)C(=O)N[C@@H](Cc1ccccc1)C(N)=O)C(C)C) [analog no. 38]
 | 19.9 nM | 4.8 nM | SRAHQHS[Nle]ETRTPDINPAWYTGRGIRPVGR[PheNO2]-NH2 [analog no. 27]
 | 0.98 nM | 1.53 nM | Octanoyl-SRAHQHS[Nle]ETRTPDINPAWYTGRGIRPVGRF-NH2 [analog no. 15]
 | 1.3 nM | 1.05 nM | Palmitoyl-SRAHQHS[Nle]ETRTPDINPAWYTGRGIRPVGR[PheCl2]-NH2 [analog no. 26]
 | 0.51 nM | 1.92 nM | Palmitoyl-SRAHQHS[Nle]ETRTPDINPAWYTGRGIRPVGR[Phe(F5)]-NH2 [analog no. 33]
 | 0.58 nM | 0.77 nM | Palmitoyl-SRAHQHS[Nle]ETRTPDINPAWYTGRGIRPVGR[PheNO2]-NH2 [analog no. 29]
 | 0.44 nM | 1.57 nM | Palmitoyl-SRAHQHS[Nle]ETRTPDINPAWYTGRGIRPVGRY-NH2 (SMILES CCCCCCCCCCCCCCCC(=O)N[C@@H](CO)C(=O)N[C@@H](CCCNC(=N)N)C(=O)N[C@@H](C)C(=O)N[C@@H](Cc1c[nH]cn1)C(=O)N[C@@H](CCC(N)=O)C(=O)N[C@@H](Cc1c[nH]cn1)C(=O)N[C@@H](CO)C(=O)N[C@@H](CCCC)C(=O)N[C@@H](CCC(=O)O)C(=O)N[C@H](C(=O)N[C@@H](CCCNC(=N)N)C(=O)N[C@H](C(=O)N1CCC[C@H]1C(=O)N[C@@H](CC(=O)O)C(=O)N[C@H](C(=O)N[C@@H](CC(N)=O)C(=O)N1CCC[C@H]1C(=O)N[C@@H](C)C(=O)N[C@@H](Cc1c[nH]c2ccccc12)C(=O)N[C@@H](Cc1ccc(O)cc1)C(=O)N[C@H](C(=O)NCC(=O)N[C@@H](CCCNC(=N)N)C(=O)NCC(=O)N[C@H](C(=O)N[C@@H](CCCNC(=N)N)C(=O)N1CCC[C@H]1C(=O)N[C@H](C(=O)NCC(=O)N[C@@H](CCCNC(=N)N)C(=O)N[C@@H](Cc1ccc(O)cc1)C(N)=O)C(C)C)[C@@H](C)CC)[C@@H](C)O)[C@@H](C)CC)[C@@H](C)O)[C@@H](C)O, Tyr at position 31 in place of Phe) [analog no. 35]
 | 0.32 nM | 3.12 nM | Myristoyl-TPDINPAWYTGR[Sar]IRPVGRF-NH2 (SMILES CCCCCCCCCCCCCC(=O)N[C@H](C(=O)N1CCC[C@H]1C(=O)N[C@@H](CC(=O)O)C(=O)N[C@H](C(=O)N[C@@H](CC(N)=O)C(=O)N1CCC[C@H]1C(=O)N[C@@H](C)C(=O)N[C@@H](Cc1c[nH]c2ccccc12)C(=O)N[C@@H](Cc1ccc(O)cc1)C(=O)N[C@H](C(=O)NCC(=O)N[C@@H](CCCNC(=N)N)C(=O)N(C)CC(=O)N[C@H](C(=O)N[C@@H](CCCNC(=N)N)C(=O)N1CCC[C@H]1C(=O)N[C@H](C(=O)NCC(=O)N[C@@H](CCCNC(=N)N)C(=O)N[C@@H](Cc1ccccc1)C(N)=O)C(C)C)[C@@H](C)CC)[C@@H](C)O)[C@@H](C)CC)[C@@H](C)O) [analog no. 39]
 | 0.69 nM | 0.71 nM | Myristoyl-SRAHQHS[Nle]ETRTPDINPAWYTGRGIRPVGRF-NH2 [analog no. 18]
 | 123 nM | 262 nM | Myristoyl-SHQRPADTHWYPRG[Nle]FPTIGRITARNGEVSR (printed without a C-terminal amide) [analog no. 31]
 | 0.46 nM | 2.1 nM | Myristoyl-TPDINPAWY[NMeA]SRGIRPVGRF-NH2 (SMILES CCCCCCCCCCCCCC(=O)N[C@H](C(=O)N1CCC[C@H]1C(=O)N[C@@H](CC(=O)O)C(=O)N[C@H](C(=O)N[C@@H](CC(N)=O)C(=O)N1CCC[C@H]1C(=O)N[C@@H](C)C(=O)N[C@@H](Cc1c[nH]c2ccccc12)C(=O)N[C@@H](Cc1ccc(O)cc1)C(=O)N(C)[C@@H](C)C(=O)N[C@@H](CO)C(=O)N[C@@H](CCCNC(=N)N)C(=O)NCC(=O)N[C@H](C(=O)N[C@@H](CCCNC(=N)N)C(=O)N1CCC[C@H]1C(=O)N[C@H](C(=O)NCC(=O)N[C@@H](CCCNC(=N)N)C(=O)N[C@@H](Cc1ccccc1)C(N)=O)C(C)C)[C@@H](C)CC)[C@@H](C)CC)[C@@H](C)O) [analog no. 41]
 | 1.97 nM | 1.59 nM | Myristoyl-SRAHQHS[Nle]ETRTPDINPAWYTGRGIRPVGR[PheNO2]-NH2 [analog no. 28]
 | 0.51 nM | 3.03 nM | Palmitoyl-SRAHQHS[Nle]ETRTPDINPAWYTGRGIRPVGRF-NH2 [analog no. 19]
 | 5200 nM | 6290 nM | [code f][code r]GVPRIGRGTYWAPNIDPT-NH2 [analog no. 36]
 | 0.65 nM | 1.46 nM | Decanoyl-SRAHQHS[Nle]ETRTPDINPAWYTGRGIRPVGRF-NH2 [analog no. 16]
 | 0.96 nM | 5.39 nM | Stearoyl-SRAHQHS[Nle]ETRTPDINPAWYTGRGIRPVGRF-NH2 [analog no. 20]
 | 1.79 nM | 0.95 nM | Myristoyl-SRAHQHS[Nle]ETRTPDINPAWYTGRGIRPVGR[PheCl2]-NH2 [analog no. 25]
